According to patent US20210054097A1 (Novo Nordisk, published 2021):
Ends that are not written are not given here.

Experiments:
[1] = biological target: T1, FX activation peptide 12-mer SVAQATSSSGEA (human); assay: peptide ELISA
T1 peptide: SVAQATSSSGEA-biotin
Experimental: (§1) The peptides were C-terminally conjugated to biotin and 50 μL of 1 μg/mL peptide solution was used for immobilization in discrete wells of the microtiter plate which was pre-coated with 1 μg/mL streptavidin. Each well was washed with washing buffer (10 mM Tris, 150 mM NaCl, 2.5 mM CaCl₂, 0.05% Tween 20, pH 8.60) followed by addition of 50 μL of 2 μg/mL FLAG-tagged anti-FX Nanobody® or IgG antibody to be tested. After 1 hour non-bound Nanobody®/antibody was washed off using washing buffer.
(§2) Bound anti-FX activation peptide ligand was detected by first binding a HRP-labelled secondary antibody (for FLAG-tagged Nanobodies: Anti-FLAG mAb M2-Peroxidase (HRP) (Sigma Aldrich, US), for antibody: Fcγ Fragment Specific Peroxidase AffiniPure F(ab′)₂ Fragment Goat Anti-Human IgG (Jackson ImmunoResearch Laboratories, Inc., US), or Peroxidase AffiniPure Goat Anti-Mouse IgG (Jackson ImmunoResearch Laboratories, Inc., US)) for 1 hour, and then adding 100 μL TMB-1 ELISA substrate (Kem-En-Tec Diagnostics, Denmark).

[2] = biological target: T2, FX activation peptide 12-mer VAQATSSSGEAP (human); assay: peptide ELISA
T2 peptide: VAQATSSSGEAP-biotin
Experimental: as §1, §2

[3] = biological target: T3, FX activation peptide 12-mer AQATSSSGEAPD (human); assay: peptide ELISA
T3 peptide: AQATSSSGEAPD-biotin
Experimental: as §1, §2

[4] = biological target: T4, FX activation peptide 12-mer QATSSSGEAPDS (human); assay: peptide ELISA
T4 peptide: QATSSSGEAPDS-biotin
Experimental: as §1, §2

[5] = biological target: T5, FX activation peptide 12-mer ATSSSGEAPDSI (human); assay: peptide ELISA
T5 peptide: ATSSSGEAPDSI-biotin
Experimental: as §1, §2

[6] = biological target: T6, FX activation peptide 12-mer TSSSGEAPDSIT (human); assay: peptide ELISA
T6 peptide: TSSSGEAPDSIT-biotin
Experimental: as §1, §2

[7] = biological target: T7, FX activation peptide 12-mer SSSGEAPDSITW (human); assay: peptide ELISA
T7 peptide: SSSGEAPDSITW-biotin
Experimental: as §1, §2

[8] = biological target: T8, FX activation peptide 12-mer SSGEAPDSITWK (human); assay: peptide ELISA
T8 peptide: SSGEAPDSITWK-biotin
Experimental: as §1, §2

[9] = biological target: T9, FX activation peptide 12-mer SGEAPDSITWKP (human); assay: peptide ELISA
T9 peptide: SGEAPDSITWKP-biotin
Experimental: as §1, §2

[10] = biological target: T10, FX activation peptide 12-mer GEAPDSITWKPY (human); assay: peptide ELISA
T10 peptide: GEAPDSITWKPY-biotin
Experimental: as §1, §2

[11] = biological target: T11, FX activation peptide 12-mer PDSITWKPYDAA (human); assay: peptide ELISA
T11 peptide: PDSITWKPYDAA-biotin
Experimental: as §1, §2

[12] = biological target: T12, FX activation peptide 12-mer SITWKPYDAADL (human); assay: peptide ELISA
T12 peptide: SITWKPYDAADL-biotin
Experimental: as §1, §2

[13] = biological target: T13, FX activation peptide 12-mer ITWKPYDAADLD (human); assay: peptide ELISA
T13 peptide: ITWKPYDAADLD-biotin
Experimental: as §1, §2

[14] = biological target: T14, FX activation peptide 12-mer TWKPYDAADLDP (human); assay: peptide ELISA
T14 peptide: TWKPYDAADLDP-biotin
Experimental: as §1, §2

[15] = biological target: T15, FX activation peptide 12-mer WKPYDAADLDPT (human); assay: peptide ELISA
T15 peptide: WKPYDAADLDPT-biotin
Experimental: as §1, §2

[16] = biological target: T16, FX activation peptide 12-mer KPYDAADLDPTE (human); assay: peptide ELISA
T16 peptide: KPYDAADLDPTE-biotin
Experimental: as §1, §2

[17] = biological target: T17, FX activation peptide 12-mer PYDAADLDPTEN (human); assay: peptide ELISA
T17 peptide: PYDAADLDPTEN-biotin
Experimental: as §1, §2

[18] = biological target: T18, FX activation peptide 12-mer YDAADLDPTENP (human); assay: peptide ELISA
T18 peptide: YDAADLDPTENP-biotin
Experimental: as §1, §2

[19] = biological target: T19, FX activation peptide 12-mer DAADLDPTENPF (human); assay: peptide ELISA
T19 peptide: DAADLDPTENPF-biotin
Experimental: as §1, §2

[20] = biological target: T20, FX activation peptide 12-mer AADLDPTENPFD (human); assay: peptide ELISA
T20 peptide: AADLDPTENPFD-biotin
Experimental: as §1, §2

[21] = biological target: T21, FX activation peptide 12-mer ADLDPTENPFDL (human); assay: peptide ELISA
T21 peptide: ADLDPTENPFDL-biotin
Experimental: as §1, §2

[22] = biological target: T22, FX activation peptide 12-mer DLDPTENPFDLL (human); assay: peptide ELISA
T22 peptide: DLDPTENPFDLL-biotin
Experimental: as §1, §2

[23] = biological target: T23, FX activation peptide 12-mer TENPFDLLDFNQ (human); assay: peptide ELISA
T23 peptide: TENPFDLLDFNQ-biotin
Experimental: as §1, §2

[24] = biological target: T24, FX activation peptide 12-mer NPFDLLDFNQTQ (human); assay: peptide ELISA
T24 peptide: NPFDLLDFNQTQ-biotin
Experimental: as §1, §2

[25] = biological target: T25, FX activation peptide 12-mer FDLLDFNQTQPE (human); assay: peptide ELISA
T25 peptide: FDLLDFNQTQPE-biotin
Experimental: as §1, §2

[26] = biological target: T26, FX activation peptide 12-mer DLLDFNQTQPER (human); assay: peptide ELISA
T26 peptide: DLLDFNQTQPER-biotin
Experimental: as §1, §2

[27] = biological target: T27, FX activation peptide 12-mer LLDFNQTQPERG (human); assay: peptide ELISA
T27 peptide: LLDFNQTQPERG-biotin
Experimental: as §1, §2

[28] = biological target: T28, FX activation peptide 12-mer LDFNQTQPERGD (human); assay: peptide ELISA
T28 peptide: LDFNQTQPERGD-biotin
Experimental: as §1, §2

[29] = biological target: T29, FX activation peptide 12-mer FNQTQPERGDNN (human); assay: peptide ELISA
T29 peptide: FNQTQPERGDNN-biotin
Experimental: as §1, §2

[30] = biological target: T30, FX activation peptide 12-mer NQTQPERGDNNL (human); assay: peptide ELISA
T30 peptide: NQTQPERGDNNL-biotin
Experimental: as §1, §2

[31] = biological target: T31, FX activation peptide 12-mer QTQPERGDNNLT (human); assay: peptide ELISA
T31 peptide: QTQPERGDNNLT-biotin
Experimental: as §1, §2

[32] = biological target: T32, FX activation peptide 12-mer TQPERGDNNLTR (human); assay: peptide ELISA
T32 peptide: TQPERGDNNLTR-biotin
Experimental: as §1, §2

human activated Factor X = human activated Factor X (human, UniProt P00742 41-179; P00742 235-488); assay: cell-based or functional assay
Chain of human activated Factor X (P00742 41-179, chain 1 of 2): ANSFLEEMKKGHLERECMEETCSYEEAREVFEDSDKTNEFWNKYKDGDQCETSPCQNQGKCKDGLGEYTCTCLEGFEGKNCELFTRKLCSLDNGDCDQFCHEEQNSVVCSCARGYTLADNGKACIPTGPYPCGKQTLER
Chain of human activated Factor X (P00742 235-488, chain 2 of 2): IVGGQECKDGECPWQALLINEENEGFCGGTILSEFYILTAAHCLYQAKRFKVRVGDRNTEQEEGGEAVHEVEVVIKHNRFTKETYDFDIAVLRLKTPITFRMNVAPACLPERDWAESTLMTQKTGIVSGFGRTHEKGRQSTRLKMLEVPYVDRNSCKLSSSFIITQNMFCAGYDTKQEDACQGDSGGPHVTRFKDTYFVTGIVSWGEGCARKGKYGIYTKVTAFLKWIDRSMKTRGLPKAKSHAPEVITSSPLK

B1: Nb 701B09 (VHH)
VHH: EVQLVESGGGVVQPGGSLRLSCAASGRTFSTYAMGWFRQAPGKEREFVAAISWSGSRTYYADSVKGRFTISRDNSKNTVYLQMNSLRPEDTALYYCAADATPANGELDYWGQGTLVTVSS
notes: monovalent Nanobody; also called Nb 701609; not shown: C-terminal FLAG3 and HIS6 tag
With B1 the “ELISA signal relative to background” value [1] was 0.76, the “ELISA signal relative to background” value [2] was 0.73 and the “ELISA signal relative to background” value [3] was 0.75. For the same binder, the “ELISA signal relative to background” value [4] was 0.77, the “ELISA signal relative to background” value [5] was 0.82 and the “ELISA signal relative to background” value [6] was 0.97. The “ELISA signal relative to background” value [7] was 0.84, the “ELISA signal relative to background” value [8] was 0.89 and the “ELISA signal relative to background” value [9] was 0.84. For the same binder, the “ELISA signal relative to background” value [10] was 0.86, the “ELISA signal relative to background” value [11] was 0.83 and the “ELISA signal relative to background” value [12] was 0.84. The “ELISA signal relative to background” value [13] was 0.83, the “ELISA signal relative to background” value [14] was 0.92 and the “ELISA signal relative to background” value [15] was 1.14. The “ELISA signal relative to background” value [16] was 0.88, the “ELISA signal relative to background” value [17] was 0.88 and the “ELISA signal relative to background” value [18] was 0.81. The “ELISA signal relative to background” value [19] was 0.81, the “ELISA signal relative to background” value [20] was 0.79 and the “ELISA signal relative to background” value [21] was 0.73. For the same binder, the “ELISA signal relative to background” value [22] was 0.82, the “ELISA signal relative to background” value [23] was 4.38 and the “ELISA signal relative to background” value [24] was 2.16. For the same binder, the “ELISA signal relative to background” value [25] was 3.27, the “ELISA signal relative to background” value [26] was 1.17 and the “ELISA signal relative to background” value [27] was 1.09. For the same binder, the “ELISA signal relative to background” value [28] was 0.82, the “ELISA signal relative to background” value [29] was 0.89 and the “ELISA signal relative to background” value [30] was 0.79. For the same binder, the “ELISA signal relative to background” value [31] was 0.72, the “ELISA signal relative to background” value [32] was 0.93 and the “FXa amidolytic activity (relative to free FXa, fold)” value (human activated Factor X) was 1.06 fold.
